Legend:
[1] = molecular target: T1, PD-L1 Fc fusion protein: PD-L1 (ECD)-Fc (human IgG1) (human); test: blocking ELISA, PD-L1(ECD)-Fc coated, competitor biotin-human B7.1
T1 construct: Coated on the plate in Tests 1 to 3; also called huPD-L1-Fc; VKL-PD-L1(ECD)-Fc(human IgG1)

[2] = molecular target: T2, human PD-L1 antigen (huPD-L1-his, Sino biological, 10084-H08H-200) (human, UniProt Q9NZQ7 19-239); test: Biacore X100, antibody captured by anti-human antibody on CM5, antigen in flow, 1:1 Langmuir
T2 construct: Bought protein; also called human PD-L1-his; not shown: His tag

[3] = molecular target: T3, cynomolgus PD-L1 antigen (Cyno PD-L-his, Sino 90251-C08H-100) (cynomolgus, UniProt G7PSE7 19-239); test: as above
T3 construct: Bought protein; also called CynoPD-L1-his; not shown: His tag

[4] = molecular target: T1, PD-L1 Fc fusion protein: PD-L1 (ECD)-Fc …; test: blocking ELISA, PD-L1(ECD)-Fc coated, competitor biotin-PD-1-Fc
Procedure: The dilution of biotin (Dojindo Chemical, LK03: 3 samples) and avidin (Sigma, S2438-250UG) was 6% BSA (diluted with PBS containing 0.1% Tween20), and PBS was used as coating solution. Microtitration plates were directly coated with 1 μg/ml ([…]) of PD-L1(ECD)-Fc(SEQ ID NO: 4) and incubated at 4° C. overnight. The plate was washed three times and was blocked for 2h at 37° C. with 3% BSA(diluted with PBS containing 0.1% Tween20). The plate was washed three times and 50 μl/well of cell supernatant was added to each well. Then 50 μl/well of bio-PD-1-Fc (biotin-labeled PD-1-Fc, SEQ ID NO: 5, 2 μg/ml, PD-1-FC was labeled according to the method of Dojindo Chemical Kits Biotin Labeling Kit-NH2, LK03: 3 samples) was added to each well, well-mixed by vortex, and incubated at 37° C. for 1 h. The plates were washed 6 times, followed by addition of 50 μl/well Streptavidin-Peroxidase Polymer (S2438-250UG, Sigma, which was diluted at a ratio of 1:400), and incubated on shaker for 50 min at room temperature. The plate was washed 6 times, and then I00 μl/well of TMB was added, and incubated for 5-10 min at 37° C. Then the reaction was terminated with addition of 100 μl/well of 1M H2SO₄. The absorbance value was read on microplate reader (BMG Labtech, NOVOStar) at 450 nm, and the IC₅₀ value for blocking the binding of PD-1 antibody to ligand PD-L1 was calculated.

[5] = molecular target: T1, PD-L1 Fc fusion protein: PD-L1 (ECD)-Fc …; test: hybridoma screening, binding ELISA on coated PD-L1(ECD)-Fc (Test 1)
Procedure: On day 10-11 after fusion, an ELISA assay was performed on PD-L1 binding according to the density of the growing cells (see Test 1). For the positive cells detected in the ELISA assay (Test 1), blockade in PD-L1/PD-1 binding was detected via ELISA analysis (see Test 2). Medium in the positive wells was changed and the positive cells were expanded to a 24-well plate depending on cell density. After re-testing, the cells transferred into the 24-well plate were used for breed conservation and first sub-cloning. The positive cells during the first sub-clone screening (see Test 1) were used for breed conservation and subjected to a second sub-cloning. The positive cells during the second sub-cloning were (see Test 1) used for breed conservation and protein expression. Hybridoma cells having blocking effect on PD-L1 and PD-1 binding (see Test 2) were obtained by multiple cell fusions.
Microtitration plates were directly coated with 1 μg/ml ([…]) of PD-L1(ECD)-Fc(SEQ ID NO: 4) and incubated at 4° C. overnight. Then the plates were blocked with 150 μl/well of PBS containing 5% Skim Milk(BD, 232100) and incubated at 4° C. overnight. […] The reaction was stopped by the addition of 50 μl/well of 1M H₂SO₄ to each well and the OD value was read on an ELISA microplate reader (BMG Labtech, NOVOStar) at a wavelength of 450 nm.

[6] = molecular target: T2, human PD-L1 antigen (huPD-L1-his, Sino …); test: BIACORE (Test 4)
Source text: The anti-human capture antibody was covalently linked to the CM5 biochip (GE, BR-1000-12) according to the method described in the anti-human trapping kit (GE, BR-1008-39) instructions for affinity capturing the PD-L1 antibody of the present invention. Then, a series of concentrations of human PD-L1 antigen (Sino biological, 0084-H08H-200) were flowed through the surface of the biochip, and the reaction signal was detected in real time using a Biacore instrument (GE, BiacoreX100) to obtain the association and dissociation curves. Finally, the affinity values were obtained by fitting. After each cycle of dissociation was finished in the experiment, the biochip was washed and regenerated with regeneration solution in the anti-human capture kit (GE). The data obtained was analyzed by GE's BIA evaluation software using a 1:1(Langmuir) binding model. Ka (kon), kd (koff) and KD values were determined by the assay. The affinity of hybridoma antibodies and humanized antibodies has been summarized in other examples.

[7] = molecular target: T2, human PD-L1 antigen (huPD-L1-his, Sino …); test: affinity measurement; method and antigen not named in the sentence (PD-L1)

Row | IC50 [1] | Kd [2] | koff [2] | kon [2] | Kd [3] | koff [3] | kon [3] | IC50 [4] | Binder | also measured
1 | 0.113 µg/mL | 0.17 nM | 0.000162 s⁻¹ | 952000 M⁻¹ s⁻¹ | 0.172 nM | 0.000167 s⁻¹ | 974000 M⁻¹ s⁻¹ | 0.174 µg/mL | HRP00049: 9-2(H2/L10) IgG4 (AA)(S228P) (antibody, V domains shown, kappa light chain; also called humanized antibody 9-2) VH: QVQLQESGPGLVKPSQTLSLTCTVSGGSISNDYWTWIRQHPGKGLEYIGYISYTGSTYYNPSLKSRVTISRDTSKNQFSLKLSSVTAADTAVYYCARSGGWLAPFDYWGRGTLVTVSS VL: DIVMTQSPDSLAVSLGERATINCKSSQSLFYHSNQKHSLAWYQQKPGQPPKLLIYGASTRESGVPDRFSGSGSGTDFTLTISSLQAEDVAVYYCQQYYGYPYTFGGGTKVEIKR | –
2 | – | – | – | – | – | – | – | – | murine antibody of hybridoma clone 9-2 (antibody, V domains shown, Mouse hybridoma antibody; also called hybridoma antibody 9-2; murine antibody 9-2) VH: EVQLQESGPGLAKPSQTLSLTCSVAGYSITNDYWNWIRKFPGNKLEYMGYISYTGSTYYNPSLKSRLSITRDTSKNQYYLQLNSVTAEDTAIYYCARSGGWLAPFDYWGRGTTLTVSS VL: DIVMSQSPSSLVVSVGEKVIMSCKSSQSLFYRSNQKNSLAWYQQKPGQSPKLLIYGASTRESGVPDRFTGSGSGTDFTVTISSVKAEDLAVYYCQQYYGYPYTFGGGTKLEIK | binding result [5]: binds
3 | – | – | – | – | – | – | – | – | 9-2 chimeric antibody (antibody, V domains shown, also called the chimeric antibody (of 9-2)) VH: EVQLQESGPGLAKPSQTLSLTCSVAGYSITNDYWNWIRKFPGNKLEYMGYISYTGSTYYNPSLKSRLSITRDTSKNQYYLQLNSVTAEDTAIYYCARSGGWLAPFDYWGRGTTLTVSS VL: DIVMSQSPSSLVVSVGEKVIMSCKSSQSLFYRSNQKNSLAWYQQKPGQSPKLLIYGASTRESGVPDRFTGSGSGTDFTVTISSVKAEDLAVYYCQQYYGYPYTFGGGTKLEIK | binding result [6]: binds
4 | – | – | – | – | – | – | – | – | chimeric antibody of 24D5 with a back-mutation from serine to cysteine at position 96 (antibody, V domains shown, it is put on the VH because the printed VH has S at 96 and C at 22 (the disulfide partner named); also called 24D5 chimeric S96C) VH: QVQLQQPGAELVKPGASVKLSCKASGYTFTSYWMHWVQQRPGQGLEWIGRIHPNSGGTSYNEKFKNRATLTVDKSSSTAYMQFSSLTSEDSAVYYCARGGSSYDYFDYWGQGTTLTVSS VL: DIVLTQSPASLAVSLGQRATISCRASESVSIHGTHLMHWYQQKPGQPPKLLIYAASNLESGVPARFSGSGSETDFTLNIHPVEEEDATTYFCQQSFEDPLTFGAGTKLELK | binding result [7]: binds
5 | 0.0696 µg/mL | 0.057 nM | 0.000101 s⁻¹ | 1.77e+06 M⁻¹ s⁻¹ | 0.0579 nM | 0.000106 s⁻¹ | 1.84e+06 M⁻¹ s⁻¹ | 0.114 µg/mL | HRP00052: 24D5(GF) IgG4 (AA) (S228P) (antibody, V domains shown, kappa light chain; also called 24D5 29H1 GF; humanized antibody 24D5) VH: QVQLVQSGAEVKKPGASVKVSCKASGYTFTSYWMHWVRQAPGQGLEWMGRIGPNSGFTSYNEKFKNRVTMTRDTSTSTVYMELSSLRSEDTAVYYCARGGSSYDYFDYWGQGTTVTVSS VL: DIVLTQSPASLAVSPGQRATITCRASESVSIHGTHLMHWYQQKPGQPPKLLIYAASNLESGVPARFSGSGSGTDFTLTINPVEAEDTANYYCQQSFEDPLTFGQGTKLEIKR | –
